Test results published in article PMC9375587.

Target: Myeloperoxidase (MPO), native, dimeric (human) (UniProt P05164)
Test: SPR

Kd: 436 nM
koff: 0.503 s⁻¹
kon: 11500 M⁻¹ s⁻¹
B1: Ceruloplasmin (CP), intact (non-proteolyzed) (natural protein)
chain: KEKHYYIGIIETTWDYASDHGEKKLISVDTEHSNIYLQNGPDRIGRLYKKALYLQYTDETFRTTIEKPVWLGFLGPIIKAETGDKVYVHLKNLASRPYTFHSHGITYYKEHEGAIYPDNTTDFQRADDKVYPGEQYTYMLLATEEQSPGEGDGNCVTRIYHSHIDAPKDIASGLIGPLIICKKDSLDKEKEKHIDREFVVMFSVVDENFSWYLEDNIKTYCSEPEKVDKDNEDFQESNRMYSVNGYTFGSLPGLSMCAEDRVKWYLFGMGNEVDVHAAFFHGQALTNKNYRIDTINLFPATLFDAYMVAQNPGEWMLSCQNLNHLKAGLQAFFQVQECNKSSSKDNIRGKHVRHYYIAAEEIIWNYAPSGIDIFTKENLTAPGSDSAVFFEQGTTRIGGSYKKLVYREYTDASFTNRKERGPEEEHLGILGPVIWAEVGDTIRVTFHNKGAYPLSIEPIGVRFNKNNEGTYYSPNYNPQSRSVPPSASHVAPTETFTYEWTVPKEVGPTNADPVCLAKMYYSAVEPTKDIFTGLIGPMKICKKGSLHANGRQKDVDKEFYLFPTVFDENESLLLEDNIRMFTTAPDQVDKEDEDFQESNKMHSMNGFMYGNQPGLTMCKGDSVVWYLFSAGNEADVHGIYFSGNTYLWRGERRDTANLFPQTSLTLHMWPDTEGTFNVECLTTDHYTGGMKQKYTVNQCRRQSEDSTFYLGERTYYIAAVEVEWDYSPQREWEKELHHLQEQNVSNAFLDKGEFYIGSKYKKVVYRQYTDSTFRVPVERKAEEEHLGILGPQLHADVGDKVKIIFKNMATRPYSIHAHGVQTESSTVTPTLPGETLTYVWKIPERSGAGTEDSACIPWAYYSTVDQVKDLYSGLIGPLIVCRRPYLKVFNPRRKLEFALLFLVFDENESWYLDDNIKTYSDHPEKVNKDDEEFIESNKMHAINGRMFGNLQGLTMHVGDEVNWYLMGMGNEIDLHTVHFHGHSFQYKHRGVYSSDVFDIFPGTYQTLEMFPRTPGIWLLHCHVTDHIHAGMETTYTVLQNEDTKSG
